Measurements published in the supplement of paper PMC7125110.
± gives the standard error. Variants at the floor of the assay were thinned out.

B1: glmS ribozyme (parent)
chain: AUAAAAGCGCCAGAACUACAGAAAUGUAGUUGACGAGGAGGAGGUUUAUCGAAUUUUCGGCGGAUGCCUCCAAA

Variants of: B1
Assay: self-cleavage kobs at 2500 uM GlcN6P; higher = faster cleavage; RNA array
Conditions: with glucosamine-6-phosphate
Procedure, shortened: (§1)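 E. coli RNA polymerase transcribed barcoded ribozyme variants in situ on sequenced MiSeq chips, which were tracked via a hybridised Cy3 probe at 37 °C. Tiles were imaged over ~14 h after glucosamine-6-phosphate (40 μM to 10 mM) in HEPES/KCl/Mg(OAc)2 buffer was flowed in. Normalised per-tile medians were fit to one- or two-exponential decays for kobs, and kcat and KM came from weighted Michaelis–Menten fits.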

First: A14G A52U A53G
Second: U31G C34G A64G C67G
The “self-cleavage kobs at 2500 uM GlcN6P” value of the first is higher: 0.000141 ± 3.3e-05 s⁻¹ for the first, under 1e-05 s⁻¹ for the second.

First: G29C G32U C67A
Second: U30C G38U A42C
The “self-cleavage kobs at 2500 uM GlcN6P” value of the first is higher: 4.32e-05 ± 2e-05 s⁻¹ for the first, under 1e-05 s⁻¹ for the second.

First: U30C C34G G44C U57G C70U
Second: C16U G32U U46G
The “self-cleavage kobs at 2500 uM GlcN6P” value of the first is lower: under 1e-05 s⁻¹ for the first, 6.51e-05 ± 2.5e-05 s⁻¹ for the second.

First: G32A U54A C70G
Second: G29A A39U G40U
The “self-cleavage kobs at 2500 uM GlcN6P” value of the first is 2.1-fold higher: 0.000378 ± 5.3e-05 s⁻¹ for the first, 0.000177 ± 3.8e-05 s⁻¹ for the second.

Going from A14C G60U C68U to U30G G32U, the “self-cleavage kobs at 2500 uM GlcN6P” value rises from under 1e-05 s⁻¹ to 0.000223 ± 6.5e-05 s⁻¹.

First: A14G G44U U56A
Second: C16G G40C U45G
The “self-cleavage kobs at 2500 uM GlcN6P” value of the first is 15-fold higher: 0.000881 ± 0.00031 s⁻¹ for the first, 6.01e-05 ± 2.1e-05 s⁻¹ for the second.

G32A U45C A52G and A14U A33U A36C cannot be ordered by “self-cleavage kobs at 2500 uM GlcN6P” value: under 1e-05 s⁻¹ for the first, under 1e-05 s⁻¹ for the second.

First: A14U C16G G38C G41C U47G
Second: A14U G32U C71A
The “self-cleavage kobs at 2500 uM GlcN6P” value of the first is lower: under 1e-05 s⁻¹ for the first, 4.64e-05 ± 2e-05 s⁻¹ for the second.

G32C A39C C61G C70U and C16G G32C G41U U69C cannot be ordered by “self-cleavage kobs at 2500 uM GlcN6P” value: under 1e-05 s⁻¹ for the first, under 1e-05 s⁻¹ for the second.

Compared with A15C G66C, A14U U57A A64G is 8.6-fold lower in “self-cleavage kobs at 2500 uM GlcN6P” value: 0.000277 ± 0.00013 s⁻¹ for the first, 3.21e-05 ± 1.3e-05 s⁻¹ for the second.

Going from G29C G59U G66C C70A to G29U U56A C68U, the “self-cleavage kobs at 2500 uM GlcN6P” value rises from 0.000112 ± 2.7e-05 s⁻¹ to 0.000413 ± 6.5e-05 s⁻¹ (3.7-fold).

Compared with A14G A48G C71U, U30A A39G C70U is 21-fold higher in “self-cleavage kobs at 2500 uM GlcN6P” value: 0.000156 ± 5.8e-05 s⁻¹ for the first, 0.00333 ± 0.00077 s⁻¹ for the second.

Going from A14U A15U C16U to A15U G44C A64G, the “self-cleavage kobs at 2500 uM GlcN6P” value falls from 5.74e-05 ± 2.3e-05 s⁻¹ to under 1e-05 s⁻¹.

G29A G35U A53U and G29U A39U G59C C61A cannot be ordered by “self-cleavage kobs at 2500 uM GlcN6P” value: under 1e-05 s⁻¹ for the first, under 1e-05 s⁻¹ for the second.

A14U U30G U31C A53U and G29A U65G are within error of each other in “self-cleavage kobs at 2500 uM GlcN6P” value: 0.00047 ± 0.00013 s⁻¹ for the first, 0.000664 ± 0.00023 s⁻¹ for the second.

A14U U47A C71G and A14G U46C A48C C68U are within error of each other in “self-cleavage kobs at 2500 uM GlcN6P” value: 0.000172 ± 6.8e-05 s⁻¹ for the first, 8.06e-05 ± 3.1e-05 s⁻¹ for the second.

A15U C16G A33U U49C and C16G U30A G35U A36C A53U cannot be ordered by “self-cleavage kobs at 2500 uM GlcN6P” value: under 1e-05 s⁻¹ for the first, under 1e-05 s⁻¹ for the second.

First: A14U U30G G38A U69G
Second: G32C G37C C50A G60C
The “self-cleavage kobs at 2500 uM GlcN6P” value of the first is higher: 0.00012 ± 5.3e-05 s⁻¹ for the first, under 1e-05 s⁻¹ for the second.

Going from A15G A64C C71U to A14G C16A U45C G66C, the “self-cleavage kobs at 2500 uM GlcN6P” value rises from 7.46e-05 ± 1.9e-05 s⁻¹ to 0.000167 ± 3.4e-05 s⁻¹ (2.2-fold).

For A14G A42G A52U, the “self-cleavage kobs at 2500 uM GlcN6P” value was 9.16e-05 ± 3.3e-05 s⁻¹.

Variants of: B1
Assay: self-cleavage kobs at 10000 uM GlcN6P; higher = faster cleavage; RNA array
Conditions: with glucosamine-6-phosphate
Procedure, shortened: as §1

G29C G32U C67A and C16U G32U U46G are within error of each other in “self-cleavage kobs at 10000 uM GlcN6P” value: 0.00017 ± 2.6e-05 s⁻¹ for the first, 0.000138 ± 2.5e-05 s⁻¹ for the second.

Compared with U30G G32U, A14U G32U C71A is 8.6-fold lower in “self-cleavage kobs at 10000 uM GlcN6P” value: 0.000612 ± 0.00015 s⁻¹ for the first, 7.15e-05 ± 2.1e-05 s⁻¹ for the second.

With G29A U65G the “self-cleavage kobs at 10000 uM GlcN6P” value was 0.00113 ± 0.00027 s⁻¹.
